This note sets out measurements from publication doi:10.1101/2023.10.23.563594 (bioRxiv, 2023).

The labels stand for the following.
B1: Polycomb group ring-finger subunit PCGF4, full-length, co-expressed in the vPRC1.4 complex (natural protein)
chain: MHRTTRIKITELNPHLMCVLCGGYFIDATTIIECLHSFCKTCIVRYLETSKYCPICDVQVHKTRPLLNIRSDKTLQDIVYKLVPGLFKNEMKRRRDFYAAHPSADAANGSNEDRGEVADEDKRIITDDEIISLSIEFFDQNRLDRKVNKDKEKSKEEVNDKRYLRCPAAMTVMHLRKFLRSKMDIPNTFQIDVMYEEEPLKDYYTLMDIAYIYTWRRNGPLPLKYRVRPTCKRMKISHQRDGLTNAGELESDSGSDKANSPAGGIPSTSSCLPSPSTPVQSPHPQFPHISSTMNGTSNSPSGNHQSSFANRPRKSSVNGSSATSSG
B2: RING1 and YY1-binding protein (RYBP), full-length wild type, co-expressed in the vPRC1.4 complex (natural protein)
chain: MTMGDKKSPTRPKRQAKPAADEGFWDCSVCTFRNSAEAFKCSICDVRKGTSTRKPRINSQLVAQQVAQQYATPPPPKKEKKEKVEKQDKEKPEKDKEISPSVTKKNTNKKTKPKSDILKDPPSEANSIQSANATTKTSETNHTSRPRLKNVDRSTAQQLAVTVGNVTVIITDFKEKTRSSSTSSSTVTSSAGSEQQNQSSSGSESTDKGSSRSSTPKGDMSAVNDESF
B6: E3 ubiquitin ligase subunit RING1B, full-length, co-expressed in the vPRC1.4 complex (natural protein)
chain: MSQAVQTNGTQPLSKTWELSLYELQRTPQEAITDGLEIVVSPRSLHSELMCPICLDMLKNTMTTKECLHRFCADCIITALRSGNKECPTCRKKLVSKRSLRPDPNFDALISKIYPSRDEYEAHQERVLARINKHNNQQALSHSIEEGLKIQAMNRLQRGKKQQIENGSGAEDNGDSSHCSNASTHSNQEAGPSNKRTKTSDDSGLELDNNNAAMAIDPVMDGASEIELVFRPHPTLMEKDDSAQTRYIKTSGNATVDHLSKYLAVRLALEELRSKGESNQMNLDTASEKQYTIYIATASGQFTVLNGSFSLELVSEKYWKVNKPMELYYAPTKEHK

The target of assay [1] is B6. In words: SEC-MALS.
The target of assay [2] is B2. The experiment in a line: SEC-MALS.
For assay [3], the target named is B6. In words: cross-linking.
In assay [4] the target is B1. In words: cross-linking.
For assay [5], the target named is B6. In words: pull-down.
Assay [6] addresses B1. The experiment in a line: pull-down.
The target in assay [7] is T1, full-length unlabelled RING1B-PCGF4 catalytic dimer (human, UniProt Q99496-1;P35226).
T1 sequence 1: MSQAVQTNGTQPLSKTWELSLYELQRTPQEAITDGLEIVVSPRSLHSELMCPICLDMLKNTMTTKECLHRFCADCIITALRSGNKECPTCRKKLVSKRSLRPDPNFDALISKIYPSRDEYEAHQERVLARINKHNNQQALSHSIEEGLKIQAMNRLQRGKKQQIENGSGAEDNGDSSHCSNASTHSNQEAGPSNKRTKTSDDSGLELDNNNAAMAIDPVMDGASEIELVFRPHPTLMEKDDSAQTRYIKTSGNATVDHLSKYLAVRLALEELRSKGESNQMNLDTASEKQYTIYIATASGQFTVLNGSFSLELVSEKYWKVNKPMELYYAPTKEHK
T1 sequence 2: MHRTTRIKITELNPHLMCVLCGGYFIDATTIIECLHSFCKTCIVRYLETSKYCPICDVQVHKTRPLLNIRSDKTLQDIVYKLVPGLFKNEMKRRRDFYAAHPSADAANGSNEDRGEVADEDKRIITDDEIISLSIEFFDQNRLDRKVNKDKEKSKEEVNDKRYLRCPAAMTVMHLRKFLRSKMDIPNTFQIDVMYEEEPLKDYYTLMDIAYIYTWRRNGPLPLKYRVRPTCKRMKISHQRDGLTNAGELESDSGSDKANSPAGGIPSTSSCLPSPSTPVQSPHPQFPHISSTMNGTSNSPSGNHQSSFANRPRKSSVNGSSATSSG
In words: pull-down.

As to B1, the “stoichiometry N” value in assay [1] and in assay [2] was 1 in each case.
With B2, the binding result in assay [3] and in assay [4] was “binds” throughout.

B3: RYBP A63T, co-expressed with RING1B and PCGF4 (natural protein)
chain: MTMGDKKSPTRPKRQAKPAADEGFWDCSVCTFRNSAEAFKCSICDVRKGTSTRKPRINSQLVTQQVAQQYATPPPPKKEKKEKVEKQDKEKPEKDKEISPSVTKKNTNKKTKPKSDILKDPPSEANSIQSANATTKTSETNHTSRPRLKNVDRSTAQQLAVTVGNVTVIITDFKEKTRSSSTSSSTVTSSAGSEQQNQSSSGSESTDKGSSRSSTPKGDMSAVNDESF
Take B3: the binding result in assay [5] and in assay [6] was “binds” in each case.

B4: RYBP Q69K, co-expressed with RING1B and PCGF4 (natural protein)
chain: MTMGDKKSPTRPKRQAKPAADEGFWDCSVCTFRNSAEAFKCSICDVRKGTSTRKPRINSQLVAQQVAQKYATPPPPKKEKKEKVEKQDKEKPEKDKEISPSVTKKNTNKKTKPKSDILKDPPSEANSIQSANATTKTSETNHTSRPRLKNVDRSTAQQLAVTVGNVTVIITDFKEKTRSSSTSSSTVTSSAGSEQQNQSSSGSESTDKGSSRSSTPKGDMSAVNDESF
As for B4, the binding result in assay [5] and in assay [6] was “binds” in each case.

B5: RYBP full-length, 15N- or 13C/15N-labelled, from E. coli (natural protein)
chain: MTMGDKKSPTRPKRQAKPAADEGFWDCSVCTFRNSAEAFKCSICDVRKGTSTRKPRINSQLVAQQVAQQYATPPPPKKEKKEKVEKQDKEKPEKDKEISPSVTKKNTNKKTKPKSDILKDPPSEANSIQSANATTKTSETNHTSRPRLKNVDRSTAQQLAVTVGNVTVIITDFKEKTRSSSTSSSTVTSSAGSEQQNQSSSGSESTDKGSSRSSTPKGDMSAVNDESF
modifications: uniform 15N or 13C/15N isotope labelling
As to B5, in assay [7], the binding result was “binds”.
Take B6: in assay [2], the “stoichiometry N” value came out at 1.

The term stoichiometry N denotes a count of units in the complex or per binding partner.
